These results are taken from paper PMC3502752.

The Kd is the free concentration of one partner at which half of the binding sites on the other are occupied at equilibrium, for simple one-to-one binding. Higher therefore signals lower affinity.

Common to all, as to details: ELISA: 20 mM Tris-HCl pH 7.5, 100 mM NaCl, room temperature, 1 h (washes with 0.02% Tween-20); SPR conditions not in the material
Data set [1] relates to MRL-4 scFv (mouse). As to the kind of experiment: SPR. A general note: In SPR one partner is held on a chip, and binding of the other changes the refractive index at the surface.
For data set [2], the system named is MRL-4 scFv VH P23A (mouse). As to the kind of experiment: SPR.
Data set [3] relates to BV04-01 scFv (SCA04-01) (mouse (lupus-prone)). Briefly: SPR.
The test system of data set [4] is BV04-01 scFv VH A23P (mouse (lupus-prone)). Briefly: SPR.
The test system of data set [5] is MRL-4 scFv (mouse). As to the kind of experiment: ELISA.
Data set [6] deals with MRL-4 scFv VH P23A (mouse). Briefly: ELISA. (In general: In an ELISA, binding on a coated surface is turned into a signal by an enzyme label.)
Data set [7] concerns BV04-01 scFv (SCA04-01) (mouse (lupus-prone)). Briefly: ELISA.
Data set [8] deals with BV04-01 scFv VH A23P (mouse (lupus-prone)). As to the kind of experiment: ELISA.

With “double-stranded DNA fragments (SPR ligand)”, the Kd in the data set with MRL-4 scFv (mouse) [1] was determined as 17 nM; in data set [2], 8500 nM; in data set [3], 1.8 nM; in data set [4] it was 290 nM.
For 254-bp PCR fragment (ELISA), the binding signal (in the data set with MRL-4 scFv (mouse) [5]; in data set [7]) was 100% throughout. In data set [6], this substance yielded a binding signal (% of MRL-4 wild type) of 4.6. The substance also gave a binding signal (% of BV04-01 wild type) in data set [8] of 1.2.
